Source: US20100297131A1

Assays:
[1] = biological target: human erythrocytes, untreated (uncharacterized neuraminidase sensitive, trypsin resistant receptor on the surface of the erythrocyte) (human); assay: erythrocyte rosetting on transfected COS7 cells, normalized to 5% transfection efficiency
[2] = biological target: neuraminidase-treated human erythrocytes (human); assay: erythrocyte rosetting on transfected COS7 cells, erythrocytes pretreated with neuraminidase

| Substance | binding activity (%) [1] | fold reduction of binding against untreated erythrocytes [2] |
| --- | --- | --- |
| PfRH1 region II (RII) expressed on the surface of COS7 cells as a GFP fusion protein (from UniProt P86148 334-1000) | > 70% | 10 fold |
| PfRH1 region III (RIII) expressed on the surface of COS7 cells as a GFP fusion protein | < 10% | – |
| PfRH1 region IV (RIV) expressed on the surface of COS7 cells as a GFP fusion protein | < 10% | – |
| PfRH1 region VI (RVI) expressed on the surface of COS7 cells as a GFP fusion protein | < 10% | – |
